The supplement of paper PMC10567573

B1: FAM98B (parent)
chain: QLDKNSEVYQEVQAMFDTLGIPKS

Variants of: B1
Assay: protein stability index of a GFP-peptide fusion (GPS, HEK-293T) (PSI 1-6); higher = more stable
Settings: c terminus: a fixed tail appended
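Further: lentivirally expressed fusions sorted by FACS into six bins by GFP to DsRed ratio, PSI derived from sequencing read proportions per bin multiplied by bin number.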

Protein stability index: each site, then its substitutions
I21: M 3.27 | F 3.3 | W 3.6 | Q 3.64 | H 3.4 | R 2.76 | D 3.8 | C 3.53 | N 3.41 | E 4.21 | Y 3 | P 3.6 | A 3.72 | K 3.58 | L 4 | V 3.51 | S 3.34 | T 3.69 | G 3.69
G20: W 3 | K 3.62 | P 3.01 | R 2.44 | Q 2.98 | Y 3.02 | T 3.15 | S 3.75 | N 3.97 | M 2.5 | V 2.86 | L 3.2 | I 3.21
P22: H 2.87 | M 3.37 | L 2.03 | T 3.48 | G 2.53 | W 2.98 | F 2.12 | S 4.04 | K 3.38 | D 4.05 | R 4.78 | I 2.78 | C 3.11 | A 3.48 | V 3.16 | Y 2.54 | E 4.15 | Q 2.62 | N 3.38
S24: I 2.67 | N 3.56 | C 2.44 | H 2.99 | K 2.96 | G 3.61 | Y 2.36 | F 3 | R 2.5 | V 2.61 | E 3.47 | D 4.28 | M 2.69 | T 2.48 | P 2.79 | L 2.46 | W 2.99 | Q 3.25 | A 2.88
K23: R 3.38 | N 3.54 | L 2.46 | G 3.17 | S 3.24 | I 2.15 | W 2.3 | A 3.26 | M 3.38 | D 3.82 | C 3.06 | F 2.59 | H 3.33 | P 3.47 | V 3.4 | T 3.24 | Q 3.41 | Y 2.71 | E 4.21
